For 94 variants, protein stability index results are on record in the supplement of paper PMC10567573.

B1: CDC25A (parent)
chain: KPIVPTDGKRVIVVFHCEFSSERG
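Note: lentivirally expressed fusions sorted by FACS into six bins by GFP to DsRed ratio, PSI derived from sequencing read proportions per bin multiplied by bin number.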

This data set covers variants of B1. Put plainly: protein stability index of a GFP-peptide fusion (GPS, HEK-293T) (PSI 1-6); higher = more stable. The note with it: c terminus: a fixed tail appended.
On to KPIVPPDGKRVIVVFHCEFSSERG [T6P], for which the protein stability index is 1.95.

For KPIVPRDGKRVIVVFHCEFSSERG [T6R], the protein stability index is 2.27.

Take KPIVPLDGKRVIVVFHCEFSSERG [T6L]: the protein stability index was found to be 1.92.

Turning to KPIVPEDGKRVIVVFHCEFSSERG [T6E], the protein stability index amounted to 1.82.

Consider KPIVPDDGKRVIVVFHCEFSSERG [T6D], for which the protein stability index is 1.8.

As to KPIVPMDGKRVIVVFHCEFSSERG [T6M], the protein stability index amounted to 2.11.

Regarding KPIVPVDGKRVIVVFHCEFSSERG [T6V], the protein stability index came to 1.61.

With KPIVPWDGKRVIVVFHCEFSSERG [T6W], the protein stability index came to 3.34.

For the variant KPIVPADGKRVIVVFHCEFSSERG [T6A], the protein stability index was determined as 1.44.

For the variant KPIVPFDGKRVIVVFHCEFSSERG [T6F], the protein stability index came to 2.46.

As to KPIVPSDGKRVIVVFHCEFSSERG [T6S], the protein stability index was found to be 1.86.

As for KPIVPGDGKRVIVVFHCEFSSERG [T6G], the protein stability index was 1.97.

Consider KPIVPQDGKRVIVVFHCEFSSERG [T6Q], for which the protein stability index was 3.58.

For KPIVPYDGKRVIVVFHCEFSSERG [T6Y], the protein stability index was determined as 2.19.

On to KPIVPKDGKRVIVVFHCEFSSERG [T6K], for which the protein stability index was determined as 1.83.

Regarding KPIVPCDGKRVIVVFHCEFSSERG [T6C], the protein stability index was 2.64.

In the case of KPIVPHDGKRVIVVFHCEFSSERG [T6H], the protein stability index amounted to 2.71.

On to KPIVPNDGKRVIVVFHCEFSSERG [T6N], for which the protein stability index is 2.28.

Consider KPIVPIDGKRVIVVFHCEFSSERG [T6I], for which the protein stability index was found to be 2.31.

For the variant KPIVRTDGKRVIVVFHCEFSSERG [P5R], the protein stability index is 1.84.

Regarding KPIVCTDGKRVIVVFHCEFSSERG [P5C], the protein stability index was determined as 4.79.

For KPIVWTDGKRVIVVFHCEFSSERG [P5W], the protein stability index stood at 3.01.

On to KPIVKTDGKRVIVVFHCEFSSERG [P5K], for which the protein stability index was 2.13.

For KPIVTTDGKRVIVVFHCEFSSERG [P5T], the protein stability index was found to be 1.55.

In the case of KPIVGTDGKRVIVVFHCEFSSERG [P5G], the protein stability index is 1.69.

For KPIVSTDGKRVIVVFHCEFSSERG [P5S], the protein stability index stood at 2.29.

As for KPIVYTDGKRVIVVFHCEFSSERG [P5Y], the protein stability index worked out at 2.66.

With KPIVITDGKRVIVVFHCEFSSERG [P5I], the protein stability index was found to be 2.42.

Consider KPIVNTDGKRVIVVFHCEFSSERG [P5N], for which the protein stability index worked out at 4.39.

On to KPIVHTDGKRVIVVFHCEFSSERG [P5H], for which the protein stability index amounted to 1.5.

As to KPIVVTDGKRVIVVFHCEFSSERG [P5V], the protein stability index worked out at 2.29.

With KPIVDTDGKRVIVVFHCEFSSERG [P5D], the protein stability index is 1.33.

Take KPIVETDGKRVIVVFHCEFSSERG [P5E]: the protein stability index is 2.33.

Take KPIVMTDGKRVIVVFHCEFSSERG [P5M]: the protein stability index was determined as 2.45.

KPIVQTDGKRVIVVFHCEFSSERG [P5Q]: the protein stability index was 2.27.

Consider KPIVFTDGKRVIVVFHCEFSSERG [P5F], for which the protein stability index stood at 2.19.

KPIVATDGKRVIVVFHCEFSSERG [P5A]: the protein stability index worked out at 2.63.

KPIVLTDGKRVIVVFHCEFSSERG [P5L]: the protein stability index came out at 2.4.

For KPIVPTVGKRVIVVFHCEFSSERG [D7V], the protein stability index was 2.3.

With KPIVPTQGKRVIVVFHCEFSSERG [D7Q], the protein stability index was 2.76.

KPIVPTSGKRVIVVFHCEFSSERG [D7S]: the protein stability index is 1.84.

On to KPIVPTMGKRVIVVFHCEFSSERG [D7M], for which the protein stability index was 2.53.

Turning to KPIVPTTGKRVIVVFHCEFSSERG [D7T], the protein stability index is 3.31.

As to KPIVPTPGKRVIVVFHCEFSSERG [D7P], the protein stability index was 3.14.

Consider KPIVPTFGKRVIVVFHCEFSSERG [D7F], for which the protein stability index is 2.17.

KPIVPTHGKRVIVVFHCEFSSERG [D7H]: the protein stability index was determined as 3.21.

With KPIVPTRGKRVIVVFHCEFSSERG [D7R], the protein stability index was 2.

Take KPIVPTKGKRVIVVFHCEFSSERG [D7K]: the protein stability index turned out to be 1.8.

KPIVPTNGKRVIVVFHCEFSSERG [D7N]: the protein stability index amounted to 2.48.

For the variant KPIVPTWGKRVIVVFHCEFSSERG [D7W], the protein stability index was determined as 4.57.

Take KPIVPTEGKRVIVVFHCEFSSERG [D7E]: the protein stability index came to 2.8.

On to KPIVPTLGKRVIVVFHCEFSSERG [D7L], for which the protein stability index worked out at 3.2.

Turning to KPIVPTAGKRVIVVFHCEFSSERG [D7A], the protein stability index came to 2.21.

Consider KIIVPTDGKRVIVVFHCEFSSERG [P2I], for which the protein stability index was found to be 3.46.

As to KRIVPTDGKRVIVVFHCEFSSERG [P2R], the protein stability index worked out at 1.99.

KAIVPTDGKRVIVVFHCEFSSERG [P2A]: the protein stability index is 3.03.

With KCIVPTDGKRVIVVFHCEFSSERG [P2C], the protein stability index was found to be 3.03.

For the variant KHIVPTDGKRVIVVFHCEFSSERG [P2H], the protein stability index is 2.44.

On to KYIVPTDGKRVIVVFHCEFSSERG [P2Y], for which the protein stability index was determined as 2.75.

Regarding KFIVPTDGKRVIVVFHCEFSSERG [P2F], the protein stability index came to 2.37.

With KSIVPTDGKRVIVVFHCEFSSERG [P2S], the protein stability index was determined as 1.31.

With KNIVPTDGKRVIVVFHCEFSSERG [P2N], the protein stability index amounted to 3.3.

Regarding KQIVPTDGKRVIVVFHCEFSSERG [P2Q], the protein stability index came out at 2.24.

In the case of KLIVPTDGKRVIVVFHCEFSSERG [P2L], the protein stability index amounted to 1.83.

With KDIVPTDGKRVIVVFHCEFSSERG [P2D], the protein stability index stood at 1.61.

As to KVIVPTDGKRVIVVFHCEFSSERG [P2V], the protein stability index is 1.82.

Regarding HPIVPTDGKRVIVVFHCEFSSERG [K1H], the protein stability index came out at 2.4.

Turning to EPIVPTDGKRVIVVFHCEFSSERG [K1E], the protein stability index stood at 1.68.

On to PPIVPTDGKRVIVVFHCEFSSERG [K1P], for which the protein stability index was determined as 2.25.

As for APIVPTDGKRVIVVFHCEFSSERG [K1A], the protein stability index is 1.37.

With NPIVPTDGKRVIVVFHCEFSSERG [K1N], the protein stability index is 1.62.

As to SPIVPTDGKRVIVVFHCEFSSERG [K1S], the protein stability index is 2.04.

For the variant FPIVPTDGKRVIVVFHCEFSSERG [K1F], the protein stability index stood at 1.32.

As for QPIVPTDGKRVIVVFHCEFSSERG [K1Q], the protein stability index was 2.15.

For YPIVPTDGKRVIVVFHCEFSSERG [K1Y], the protein stability index is 1.55.

As to TPIVPTDGKRVIVVFHCEFSSERG [K1T], the protein stability index came to 1.98.

For MPIVPTDGKRVIVVFHCEFSSERG [K1M], the protein stability index was determined as 1.86.

With DPIVPTDGKRVIVVFHCEFSSERG [K1D], the protein stability index came out at 2.13.

For CPIVPTDGKRVIVVFHCEFSSERG [K1C], the protein stability index was determined as 3.33.

On to WPIVPTDGKRVIVVFHCEFSSERG [K1W], for which the protein stability index was found to be 2.24.

As to IPIVPTDGKRVIVVFHCEFSSERG [K1I], the protein stability index worked out at 2.57.

Consider RPIVPTDGKRVIVVFHCEFSSERG [K1R], for which the protein stability index was 2.65.

Consider VPIVPTDGKRVIVVFHCEFSSERG [K1V], for which the protein stability index was 3.69.

With KPIVPTDLKRVIVVFHCEFSSERG [G8L], the protein stability index was found to be 3.42.

As to KPIVPTDCKRVIVVFHCEFSSERG [G8C], the protein stability index amounted to 1.88.

Take KPIVPTDAKRVIVVFHCEFSSERG [G8A]: the protein stability index amounted to 2.26.

For the variant KPIVPTDMKRVIVVFHCEFSSERG [G8M], the protein stability index came out at 3.53.

In the case of KPIVPTDEKRVIVVFHCEFSSERG [G8E], the protein stability index is 2.13.

For KPIVPTDDKRVIVVFHCEFSSERG [G8D], the protein stability index is 1.33.

On to KPIVPTDFKRVIVVFHCEFSSERG [G8F], for which the protein stability index amounted to 2.28.

KPIVPTDKKRVIVVFHCEFSSERG [G8K]: the protein stability index was found to be 1.82.

For KPIVPTDIKRVIVVFHCEFSSERG [G8I], the protein stability index was determined as 2.89.

With KPIVPTDHKRVIVVFHCEFSSERG [G8H], the protein stability index was 3.19.

Take KPIVPTDNKRVIVVFHCEFSSERG [G8N]: the protein stability index stood at 1.95.
